Laboratory results published in PMC4338161.

Target: BK α W176C (S2–S3 loop) in the pWTb background (mouse)
Experiment: cross-linking

extent of cross-linking: 80%
Substance: BK β1 subunit G12C (TM1 flank) in the pWT β1 background (from UniProt Q16558-1 1-191) (natural protein)
